In the DeepSol protein solubility set:

Assay: soluble on expression in E. coli; label from the status in PepcDB or PDB records

Sequence | soluble on expression in E. coli
MSTDSQNPVRKSCAQPHSCSQEVRLKAMSRSPLTKGLNQLEHLELDKSLTAWSWAEDDPLYLAGENLNGSYLIVAGRVRVSRDTIDGKELTVDIATPGDVIGAIDTEPQPAVDSAWAIETTCALFLPATALATVIEQHPSFALAMIRMQQQRLATARDHEINLTTTTVEQRVAIAVRTLGRKIGQRRPDGILLIQVRIRREDVAGLAGTTVESTSRVLARLRKEGVIDSGREWIAVVDERQLDAIIGEDF | not soluble
MGSDKIHHHHHHMGVTGNNYTKIFHRMYWDGTPTPTQLAQELSKHGLAITGISLWQLYNGTLQFPIYVATERQLKSTQWVTFHRRKQLRCCPAGVFSVEYPVLAITNLSDAQAIETLEGAYAKAQGAKFAAEHARQYVPQRNRELLRRAVVGVDSPPEKLLITALREQGIDCHANVLVGDYRWDIQLDRHRVLIEVDGFEFHRFKPENQDAFVRDRWKTNDATLRGYLCLHYAARSVYRHTAVIVDQVQAAIRVAPARGYPFDASAMWHRGCWKWS | not soluble
MKIITAINEDEWASITHIATTVHLKKDQLIIRKGDPGNKEVFLVNGIVRGFITDENGNEKSTSFFEEGEFMSTQALRTKKGISLYNYQALCRTKLLIFDSKQLKDLLSATKKLSEIGKAIKERELTRLMNRDDCLMQVKALDKYQKFITYYPALERQISQRYIASYLGITPVSLSRLKKSMIVRTDNN | not soluble
MKGIIFTEFMELVESKFGLEVLDQVLELSDDEGVYTSVGSYDHRDLVKLIVNLSKVSDIPPEQLQEVFGESVFLNLLRSIPSHASLQQCDNTFQFVRHVESFIHVEVKKLYPDANPPKFDFISETQSELVFDYHSARCMAHVCLGLLKGCAAHFGQVIHIMHQNQTEDGSQVRFWLEAQLEHHHHHH | not soluble
MFLTWENLFLTNQSRRRLKLLVVERSYNNVGNFLKEYFGGFFEIVNFDDLRLTMVDMVSLSSEYDVIVTDMILEQTTDSEILFFNQMAPSVVANRLTDM | not soluble
MMEVLTGPERRRRWSVEEKLALVRESFEPGKTVSMVARQHGVNPNQVFHWRKLYQDGSLSAVSAGEEVVPASELAEALKLVRVLQRMLGKKTMENEILREAVEYGRAKKWIARSPSLPGDDQLEHHHHHH | not soluble
MYMNVLIISDSHGLEEELQTIAKRHEAEVDLMIHCGDSELETRHPALEPYAVVKGNCDFAGDFKDELLLTAGSRKILVTHGHLHGIKQTLLNVYYRAEELGADVICFGHSHIAGSEVLRGKLMINPGSIRLPRVRRTESYAILTLENDAATVRFYDQAGNEIEDLQNRVTLLEHHHHHH | not soluble
MGSDKIHHHHHHMRTSTHAEVLTYSDEQTSVRHLQNSAPLALKHTISPAEIRDNLPAGQGGVGFLFHATDWDTLSFSFHNVKHRNASFEEELWRTKPFIASPIYSGSQIIGANIACPVPLELWLGSPRGIKRFRETQFFPALELARQAGLNMVAMGASTPYACNYGALPRDTRPPHITTGHAATAAMLKDWAMHCCNELDLEFGKSKLALFGAAGRLGTTVAKYALYKDAPRELVLIDLPDKVNLLTEQAKELMASDLLGKTRVSVHTFSPHTPLPDFDGAILASSTSVPYLTAADLRRAQFWIDDSHPRAASVEAELASRGHTLYIECFARGPAGLNTTFPFRLPTTRDCYTCFAEGYSAWQEGIASDFIIGSPPVWSVSYTHSLLKKYGFAVGPFHGKNGSPITLDTQLRGKQELMSS | not soluble
AQEPVKGPVSTKPGSCPIILIRCAMLNPPNRCLKDTDCPGIKKCCEGSCGMACFVPQ | soluble
MKMELLLIIITQDAYIGQRFTKRSSYLCGIYDKTANTMKEPFQIPTSKDIENLIGTDLYDVWNSLCQRIEKSYEMELLWNRGGKAWTYEYKYRKGGKTLCALYAKEKTLGFMVILGKDERAKFEIQRGQFSNEVQMIYDAATTFHDGKWIMFELKDTKLFNDMERLLLIKRKPNRKAE | soluble
MSEQLTDQVLVERVQKGDQKAFNLLVVRYQHKVASLVSRYVPSGDVPDVVQEAFIKAYRALDSFRGDSAFYTWLYRIAVNTAKNYLVAQGRRPPSSDVDAIEAENFESGGALKEISNPENLMLSEELRQIVFRTIESLPEDLRMAITLRELDGLSYEEIAAIMDCPVGTVRSRIFRAREAIDNKVQPLIRR | not soluble
MSLENKIVKIEPQSIAEEMGIEVGDSLISINGKEVKDIIDYRFLMADEYVVVKIQKTNKEIWELEIEKEYDEKLGVEFESGILDSAKSCRNKCIFCFIDQLPKGMRKTLYFKDDDSRLSFLQGNFVTLTNMSDDDIDRIIKYRISPINISVQTTNPELRKKMLNNKFAGNLMERMKKLSNAGITMNCQVVLCPGINSGEEFSKTVNDLYKLYPSVKNIAGVPVGITSYREGLFNMVPYDSQSALKEIENIKPIQEKFIKEIGSPFVRLSDEFYVLSGIPIPKAEFYGEFEQFEDGIGMIRTFRDNINMSLDNLKDGIHKSFTMVTGVLAYEEIENAAKMLMEKSRGLKINVIKVINEFFGEKITVAGLLTGRDILNYLKRNEVGDYIILPSNMLKSDEDVFLDDVKVLDIEKELNKKVLVCNYSGEDLVDIINKNGREEEGHHHHHH | not soluble
MAAIKINKLLTIESNSSHTLLESMEQAGLEPEYNCRDGHCGACRCQLISGEVEYVGFAMAYTQGNEILPCICRAKTALEIEQVTYQLKAKRA | not soluble
MKKVYIKTFGCQMNEYDSDKMADVLGSAEGMVKTDNPEEADVILFNTCSVREKAQEKVFSDLGRIRPLKEANPDLIIGVGGCVASQEGDAIVKRAPFVDVVFGPQTLHRLPDLIESRKQSGRSQVDISFPEIEKFDHIPPAKVDGGAAFVSIMEGCSKYCSFCVVPYTRGEEVSRPFEDVLTEIAGLAAQGVKEITLLGQNVNAYRGLMSDGEIADFALLLEYVHEVPGVERIRFTTSHPREFSQRIIDCYAKLPKLVSHLHLPVQSGSDRVLMAMKRGYTGLEYKSIIRKLRAIRPDLCLSSDFIIGFPGETEADFEQTLKLVRDCEFDFSFVFIYSPRPGTPAANLPDDTPHAEKVRRLEALNEVIEAKGYAINQSMVGTVQRVLVENVSKKDATMLAARTANNRVVNFAGHPRLLGRMIEVKITAAFPHSLAGEALTSESALEHHHHHH | soluble
MAESVEKLEDGIVRSAEQVSSQIRAAKDAIASVIFGQDRVIENTLVTILSGGHALLIGVPGLAKTKLVETLGVTLGLDAKRIQFTPDLMPSDILGAEVLDESTAGKRSFRFIAGPVFAQLLMADEINRASPRTQSALLQAMQEQHITVAGARHDLPKPFHVLATQNPLEQEGTYPLPEAQLDRFLMEIDVDYPDRDAERRILFETTGAEETLAKGSMTADALITAQRLIRRLPVGDSVVEAILSLVRSARPGPDSGETGKFIAWGPGPRASQSLMLAVRARALIDGRLAPSVDDVLDLAEPILKHRMALTFQARAEGRTIPDVIRQLKTRIGLEHHHHHH | soluble
GVDWQDANSLQYVVQSAETLVPDVKPVAQAESVNRVNTGGEGLGGELRDQEYAIILETLVECNGRRKEMAEKLGISPRTLRYKLAKMRDAGIDIPS | not soluble
MILLKSEHGGKRKEMRQDDLMGPNHFSLRIMYKIIIYTYPVSLYAVKELNLSKTFSISALGILNSNSNRSPAKKQTFFSACVAKSYSSFFISICILDLASHL | soluble
MGSSHHHHHHGKTIFVIVPTNEEQVAFLEALAKQDELNFDWQNPPTEPGQPVVILIPSDMVEWFLEMLKAKGIPFTVYVEEGGSENLYFQGGGGGGYCAPTGRGADPKFYTPDAARKRDEQDKSYPVPKKLLKVRFLSDVGNTMPIAFVPLQREVEVLVGEPALAFYSAYNRSNRTLLGVSSYTIAPPEVTNYLNKIQCFCFEEQRFKPHELVEMPVFFYIDRDFLNDSMVNWLDEVIVNYTFFNLEKTKDYIFRPNAR | not soluble
MSLEGKTIGITAIGTDHDWDLKAYQAQIAEIERLGGTAIALDAGRNDQTQVSQIQTLIAQKPDAIIEQLGNLDVLNPWLQKINDAGIPLFTVDTATPHAINNTTSNNYSIGAELALQMVADLGGKGNVLVFNGFYSVPVCKIRYDQMKYVLEAFPDVKIIEPELRDVIPNTIQSAYSNVTDMLTKYPNEGDVGAIWACWDVPMIGATQALQAAGRTDIRTYGVDGSPEFVEMVADPESPAGAVAAQQPSEIGKLAVQNVARHLAGQEVKPFTFAPAVLITKENAAETAADFLPKEGHHHHHH | soluble
MGSDKIHHHHHHMALKVLFTGADGYVGALLGPYLLEKGIEAVGLDTGFYRKGWLYPTSAPRPAVITKDIRQVTVADLEGFDAVAHLAELSNDPLGQQSPGLTHEINHGGSMHLAEMARKAGARRFVYMSSCSVYGVGQPEQILDETSPVNPQTAYAECKVKVEEDLTRRADSDFEPCFLRNATAYGASPRQRFDIVLNDLCGLAWTTNKITLQSDGSPWRPLVHALDMCQAVWRSLTAPADAIRGQAYNVGSNDQNYRVIEIARIVADSFPGCELEVGQPSADNRSYRVNFDKIQRVLPEFQCEWTAEKGARQMRQVFERIAMTPEEFRAEPYTRLKMLMRLRASKLLDDKLFWANPMVEAVA | not soluble
AGNATEVPANSTVLSFCAFAVDPAKAYKDYLASGGQPITNCVKMLCTHTGTGQAITVTPEANMDQESFGGASCCLYCRCHIDHPNPKGFCDLKGKYVQIPTTCANDPVGFTLRNTVCTVCGMWKGYGCSCDQLREPLMQSADASTFLNGFAV | soluble
MGSDKIHHHHHHMNALPKLNQLRNLRAIIQHGNISAAAQMLHQTQSTLTRSIQELEKTLGVTLLDRGMNSTVLTKAGMMFEPRMNLILNELERAVDELRQIEKLSDGKIAFGCSHFPATSIVPDVIKKFQERHNSTRITIIEGQLSELLSSLRMGKLDFFIGVVSSDLMLNEFVEERLTSCSFSVVARKGHPLANSTSLAELQAAKWYIPAASHGYYSDLETVIFPNGVKSCGSVIFGDSSAIARKLVLNEDYLFVGPRPMFLAPHHKDLISIIPIKDKLPEGHYSLISPRNKKLTPAALNLVNEIRFAYFDFIKSHS | not soluble
MGSDKIHHHHHHMQDLLRWKNSKHRKPLILKGVRQVGKTWLLKEFARRYYNNLAYFNFDEHPEYKQFFENTKDVERILQNLMMASGQIINPKEPGTTLIVFDEIQECPNALNTLKYFCENTPHYHVACAGSLLGIALSKPASFPVGKVDFLEIGPMTFTEFLLANGDGNFVSYLDNLDRIEPIPDAFFNPLYEKLKMYFVTGGMPESVRSWTEERDVELVQQVLANILGAYERDFAKHPDPKDFPKISLIWKSLPSQLARENKKFIYKVVKEGARAREYEEALQWLCDASLAYKIYRSSAPGLPISAYDDLAAFKLYLVDVGLLRRLSLLAPSAFGEGNRLFVEFKGALSENYVLQALRNQLEAMPRYWTMDNPRHEVDFLIQRENEIIPVEVKSETNVESRSLKKFKEKYGDKVKLRVRFSLNNLRLDGDLLNIPLFITDYADKLIGMALTDQPKE | not soluble
MKFFVFALVLALMISMISADSHEKRHHGYRRKFHEKHHSHREFPFYGDYGSNYLYDNLEHHHHHH | not soluble
MAQVSTTAGGAVGVNRSQSMLLSSQEVEQMSAKSYAGELQKARAAGRLNTDPALTARVRRVSQRLIAQTPSFRPDARNWRWEVNVLTTDDMNAYAMAGGKIMVYTGLVKQLKLSDAELAAVIGHEISHALREHTRENMSQAYAQQMGLGLVGALVGLNDSQLKLASLVGDVTLSKPHSRTMESEADIMGLELMARAGYDPNAAVNVWQKMQAAGGGGGMEFLSTHPSGPTRIRDLQAHIPQVWPLYQAAPKKGLEHHHHHH | not soluble
